Experimental data from article PMC3985631, “The crystal structure of TDP-43 RRM1-DNA complex reveals the specific recognition for UG- and TG-rich nucleic acids”.

Experiments:
TDP-43 hN12 WT [1] = biological target: T1, TDP-43 hN12 WT (human, UniProt Q13148 1-259); assay: filter binding; 2 uM protein; Filter binding: 50 mM phosphate, 50 mM imidazole, 10 mM beta-mercaptoethanol, pH 7.5, room temperature, 30 min, 10 pmol 32P-labelled nucleic acid; conditions: protein: recombinant; chain copies: 2
TDP-43 hN12 WT [2] = biological target: T1, TDP-43 hN12 WT; assay: filter binding; Filter binding: 50 mM phosphate, 50 mM imidazole, 10 mM beta-mercaptoethanol, pH 7.5, room temperature, 30 min, 10 pmol 32P-labelled nucleic acid; conditions: protein: recombinant; chain copies: 2; label: 5'-32P
TDP-43 RRM1 (hRRM1) WT [3] = biological target: T2, TDP-43 RRM1 (hRRM1) WT (human, UniProt Q13148 101-191); assay: crystal structure 2.75 A; Filter binding: 50 mM phosphate, 50 mM imidazole, 10 mM beta-mercaptoethanol, pH 7.5, room temperature, 30 min, 10 pmol 32P-labelled nucleic acid; conditions: protein: recombinant; tags: N-terminal His (pQE30)
T2 sequence (Q13148 101-191): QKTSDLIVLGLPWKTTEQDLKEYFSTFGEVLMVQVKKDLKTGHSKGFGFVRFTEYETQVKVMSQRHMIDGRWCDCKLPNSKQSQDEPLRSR

TDP-43 RRM1 (hRRM1) WT [4] = biological target: T2, TDP-43 RRM1 (hRRM1) WT; assay: filter binding; Filter binding: 50 mM phosphate, 50 mM imidazole, 10 mM beta-mercaptoethanol, pH 7.5, room temperature, 30 min, 10 pmol 32P-labelled nucleic acid; conditions: protein: recombinant; tags: N-terminal His (pQE30); label: 5'-32P

T1 sequence (Q13148 1-259): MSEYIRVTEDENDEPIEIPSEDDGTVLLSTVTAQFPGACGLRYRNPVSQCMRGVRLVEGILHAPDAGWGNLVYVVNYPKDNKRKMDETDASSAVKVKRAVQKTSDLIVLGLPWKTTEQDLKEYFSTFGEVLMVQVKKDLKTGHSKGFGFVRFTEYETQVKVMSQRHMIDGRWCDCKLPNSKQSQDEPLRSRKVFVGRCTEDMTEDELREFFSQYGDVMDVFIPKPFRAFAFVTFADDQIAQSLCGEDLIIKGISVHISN

Row | Binder | binding signal (TDP-43 hN12 WT [1]) | further results
1 | CACACACACACA (ssRNA) [(CA)6 RNA] | 0.6 ± 1 % bound | 
2 | UGUGUGUGUGUGUGUGUGUGUGUGUGUGUG (ssRNA) [(UG)15 RNA] |  | Kd (TDP-43 hN12 WT [2]): 5.3 ± 1.2 nM
3 | CGCGUGCCCCUG (ssRNA) [PS2] | 6.2 ± 0.8 % bound | 
4 | UGUGUGUGUGUG (ssRNA) [(UG)6 RNA] | 67.9 ± 1.9 % bound | 
5 | AGAGUGAAAAUG (ssRNA) [PS1] | 23.1 ± 0.8 % bound | 
6 | GTTGAGCGTT (ssDNA, 2'-methylseleno-adenosine at A5) [10-nt Se-labelled ssDNA] |  | binding result (TDP-43 RRM1 (hRRM1) WT [3]): binds
7 | TGTGTGTGTGTGTGTGTGTGTGTGTGTGTG (ssDNA) [(TG)15 DNA] |  | Kd (TDP-43 RRM1 (hRRM1) WT [4]): 20.6 ± 1.8 nM
